Experimental data reported in patent US20200140562A1 (Innovent, published 2020).

Assays:
[1] = molecular target: T1, human OX40 on cells (CHO-hOX40, 293HEK-hOX40, Jurkat-hOX40, activated primary CD4+ T cells) (human, UniProt P43489 29-277); assay: flow cytometry, CHO-hOX40, 12.5 nM
T1 construct: whole, on cells; The cell type is told in each assay; also called CHO-OX40
T1 sequence (looked up): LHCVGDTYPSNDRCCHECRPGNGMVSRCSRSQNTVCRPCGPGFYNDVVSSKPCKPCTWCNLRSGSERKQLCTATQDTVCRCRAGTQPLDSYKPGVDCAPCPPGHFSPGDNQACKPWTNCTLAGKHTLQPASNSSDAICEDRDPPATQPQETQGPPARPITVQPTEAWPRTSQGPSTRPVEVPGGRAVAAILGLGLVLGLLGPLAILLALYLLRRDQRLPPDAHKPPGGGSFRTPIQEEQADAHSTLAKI

[2] = molecular target: T1, human OX40 on cells (CHO-hOX40, …); assay: flow cytometry, CHO-hOX40, 25 nM
[3] = molecular target: T1, human OX40 on cells (CHO-hOX40, …); assay: flow cytometry, 293HEK-hOX40, 1.6 nM
[4] = molecular target: T1, human OX40 on cells (CHO-hOX40, …); assay: flow cytometry, 293HEK-hOX40, 200 nM
[5] = molecular target: T1, human OX40 on cells (CHO-hOX40, …); assay: flow cytometry, CHO-hOX40, 0.09765625 nM
[6] = molecular target: T1, human OX40 on cells (CHO-hOX40, …); assay: flow cytometry, activated CD4+ T cells, donor 2, 100 nM
[7] = molecular target: T1, human OX40 on cells (CHO-hOX40, …); assay: flow cytometry, CHO-hOX40, 50 nM
[8] = molecular target: T1, human OX40 on cells (CHO-hOX40, …); assay: flow cytometry, 293HEK-hOX40, 8 nM
[9] = molecular target: T1, human OX40 on cells (CHO-hOX40, …); assay: flow cytometry, CHO-hOX40, 0.390625 nM
[10] = molecular target: T1, human OX40 on cells (CHO-hOX40, …); assay: flow cytometry, CHO-hOX40, 100 nM
[11] = molecular target: T1, human OX40 on cells (CHO-hOX40, …); assay: flow cytometry, CHO-hOX40, 0.1953125 nM
[12] = molecular target: T1, human OX40 on cells (CHO-hOX40, …); assay: flow cytometry, CHO-hOX40, 1.5625 nM
[13] = molecular target: T1, human OX40 on cells (CHO-hOX40, …); assay: flow cytometry, CHO-hOX40, 0.78125 nM
[14] = molecular target: T1, human OX40 on cells (CHO-hOX40, …); assay: flow cytometry, CHO-hOX40, 100 nM blocker, competitor OX40L-hFc-fluorescein
[15] = molecular target: T1, human OX40 on cells (CHO-hOX40, …); assay: flow cytometry, CHO-hOX40, 200 nM
[16] = molecular target: T1, human OX40 on cells (CHO-hOX40, …); assay: flow cytometry, 293HEK-hOX40, 40 nM
[17] = molecular target: T1, human OX40 on cells (CHO-hOX40, …); assay: flow cytometry, 293HEK-hOX40 cells
[18] = molecular target: T1, human OX40 on cells (CHO-hOX40, …); assay: flow cytometry, activated CD4+ T cells, donor 1, 100 nM
[19] = molecular target: T1, human OX40 on cells (CHO-hOX40, …); assay: flow cytometry, CHO-hOX40, 0.048828125 nM
[20] = molecular target: T1, human OX40 on cells (CHO-hOX40, …); assay: flow cytometry, CHO-hOX40, 3.125 nM
[21] = molecular target: T1, human OX40 on cells (CHO-hOX40, …); assay: flow cytometry, CHO-hOX40, 6.25 nM
[22] = molecular target: T1, human OX40 on cells (CHO-hOX40, …); assay: flow cytometry, CHO-hOX40, 0.024414063 nM

- MFI [1]: 1630 MFI
- MFI [2]: 1560 MFI
- MFI [3]: 5630 MFI
- MFI [4]: 11100 MFI
- MFI [5]: 2380 MFI
- MFI [6]: 1710 MFI
- MFI [7]: 1700 MFI
- MFI [8]: 5310 MFI
- MFI [9]: 1710 MFI
- MFI [10]: 1720 MFI
- MFI [11]: 1510 MFI
- MFI [12]: 1930 MFI
- MFI [13]: 1680 MFI
- MFI of OX40L signal on CHO-OX40 cells [14]: 35100 MFI
- MFI [15]: 2820 MFI
- MFI [16]: 25200 MFI
- binding result [17]: no binding (tested: 200 nM)
- MFI [18]: 6310 MFI
- MFI [19]: 2020 MFI
- MFI [20]: 1750 MFI
- MFI [21]: 1600 MFI
- MFI [22]: 2070 MFI
B1: IgG1 control (antibody, V domains shown)
VH: EVRLLESGGGLVQPGGSLRLSCAASGFTFSNYAMGWVRQAPGKGLEWVSAISGSGGSTYYADSVKGRFTTSRDDSKNALYLQMNSLRAEDTAVYYCARGGPGWYAADVWGQGTTVTVSS
VL: DIQMTQSPSSLSASVGDRVTITCRASQSISSYLNWYQQKPGKAPKLLIYAASSLQSGVPSRFSGSGSGTDFTLTISSLQPEDFATYYCQQADLPAFAFGGGTKVEIKR
notes: Negative control; The printed entries seem to begin with a leader peptide
